Usually koff stands for the first-order rate constant of dissociation. Lower therefore signals slow dissociation. What is called kon is the second-order rate constant of association. A higher kon goes with faster complex formation.

For assay [1], the target named is T1, human PD-1-His (human, UniProt Q15116 25-167, limits assumed).
T1 construct: Antigen of the Octet assays; not shown: His tag
Briefly: Octet (BLI); antibody captured on anti-human Fc (AHC) biosensors and dipped into multiple concentrations of human PD-1-His. A general note: BLI is a label-free optical method that tracks binding on a fibre tip over time.

In assay [2] the target is T1, human PD-1-His. Kind of assay: Octet (BLI), AHC capture of the bivalent mAb, PD-1 in solution. The text has this: (§1) In particular, anti-human IgG-Fc (AHC) biosensors were used to capture the test articles and dipped into multiple concentrations of PD-1.
The target in assay [3] is T1, human PD-1-His. Kind of assay: Octet (BLI), AHC biosensors capture the bivalent mAb, dipped into multiple concentrations of PD-1; KDapp per legend.
Description: as §1

For assay [4], the target named is T1, human PD-1-His. Kind of assay: Octet (BLI), bivalent IgG1 mAb.
Assay [5] concerns the target T1, human PD-1-His. Kind of assay: Octet (BLI), bivalent IgG1 mAb; legend calls the constant apparent (KDapp).

T1 sequence (Q15116 25-167 limits assumed): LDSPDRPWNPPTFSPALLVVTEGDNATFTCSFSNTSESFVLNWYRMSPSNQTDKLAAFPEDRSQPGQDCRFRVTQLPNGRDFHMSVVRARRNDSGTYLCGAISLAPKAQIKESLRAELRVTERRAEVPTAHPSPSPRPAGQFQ

B1: XENP28538 (humanized variant of mAb C, bivalent human IgG1) (antibody, V domains shown)
VH: EVQLVESGGGLVKPGGSLRLSCAASGFTFSSFGMHWVRQAPGKGLEWVGYISSGSSIIYYADPVKGRFTISRDNSKNTLYLQMNSLKTEDTAVYYCARGGRLVWSPDYWGQGTLVTVSS
VL: DIVMTQSPDSLAVSLGERATINCKSSQSLLNSGNQKNYLTWYQQKPGQPPKLLIYWASTRESGVPDRFTGSGSGTDFTLTISSLQAEDVAVYYCQNDYSYPFTFGSGTKLEIKR
notes: Human IgG1 with E233P/L234V/L235A/G236del/S267K
Regarding B1, in the assay with human PD-1-His [1], the binding result is reported as “no binding”.

B2: H1.221_L1.1 (XENP32837) (antibody, human IgG1, kappa, V domains shown)
VH: EVQLVESGGGLVQPGGSLRLSCAASGFTFSSFGMHWVRQAPGKGLEWVSYISSGSSIIYYADSVKGRFTISRDNAKNSLYLQMNSLRAEDTAVYYCARGGRRVFSPDYWGQGTLVTVSS
VL: DIVMTQSPDSLAVSLGERATINCKSSQSLLHSGNQKNYLTWYQQKPGQPPKLLIYWASTRESGVPDRFTGSGSGTDFTLTISSLQAEDVAVYYCQNDYSYPFTFGSGTKLEIKR
notes: VH substitution L110R/W112F (Xencor #); L98R/W100F (Kabat); also called mAb C[PD1]_H1.221_L1.1_IgG1_PVA_/S267K
Consider B2, for which, in the assay with human PD-1-His [2], the dissociation rate constant (koff) was 0.00477 s⁻¹ and the kon turned out to be 136000 M⁻¹ s⁻¹. This molecule had a Kd in the assay with human PD-1-His [3] of 35.1 nM.

B3: H1.214_L1.1 (XENP32830) (antibody, human IgG1, kappa, V domains shown)
VH: EVQLVESGGGLVQPGGSLRLSCAASGFTFSSFGMHWVRQAPGKGLEWVSYISSGSSIIYYADSVKGRFTISRDNAKNSLYLQMNSLRAEDTAVYYCARGGLLILSPDYWGQGTLVTVSS
VL: DIVMTQSPDSLAVSLGERATINCKSSQSLLHSGNQKNYLTWYQQKPGQPPKLLIYWASTRESGVPDRFTGSGSGTDFTLTISSLQAEDVAVYYCQNDYSYPFTFGSGTKLEIKR
notes: VH substitution R109L/V111I/W112L (Xencor #) but R97L/V99I/W100F in the Kabat column: the two columns disagree; also called mAb C[PD1]_H1.214_L1.1_IgG1_PVA_/S267K
As to B3, in the assay with human PD-1-His [2], the koff was determined as 0.0061 s⁻¹ and the kon worked out at 166000 M⁻¹ s⁻¹. This molecule returned a Kd with human PD-1-His [3] of 36.7 nM.

B4: H1.220_L1.1 (XENP32836) (antibody, human IgG1, kappa, V domains shown)
VH: EVQLVESGGGLVQPGGSLRLSCAASGFTFSSFGMHWVRQAPGKGLEWVSYISSGSSIIYYADSVKGRFTISRDNAKNSLYLQMNSLRAEDTAVYYCARGGRLYFSPDYWGQGTLVTVSS
VL: DIVMTQSPDSLAVSLGERATINCKSSQSLLHSGNQKNYLTWYQQKPGQPPKLLIYWASTRESGVPDRFTGSGSGTDFTLTISSLQAEDVAVYYCQNDYSYPFTFGSGTKLEIKR
notes: VH substitution V111Y/W112F (Xencor #); V99Y/W100F (Kabat); also called mAb C[PD1]_H1.220_L1.1_IgG1_PVA_/S267K
In the assay with human PD-1-His [2], B4 returned a koff of 0.00557 s⁻¹ and a kon of 140000 M⁻¹ s⁻¹. This molecule also registered a Kd in the assay with human PD-1-His [3] of 39.9 nM.

B5: mAb C[PD1]_H1.176_L1.140 (bivalent IgG1) (antibody, V domains shown)
VH: EVQLVESGGGLVQPGGSLRLSCAASGFTFSSLGMHWVRQAPGKGLEWVSYISSGSSIIYYADSVKGRFTISRDNAKNSLYLQMNSLRAEDTAVYYCARGGRLVFSPDYWGQGTLVTVSS
VL: DIVMTQSPDSLAVSLGERATINCKSSQSLLHSGNQYNYLTWYQQKPGQPPKLLIYWASTRESGVPDRFTGSGSGTDFTLTISSLQAEDVAVYYCQNDYTYPFTFGSGTKLEIK
notes: Bivalent IgG1 format with E233P/L234V/L235A/G236_/S267K
For B5, in the assay with human PD-1-His [4], the koff stood at 0.000278 s⁻¹ and the kon is 131000 M⁻¹ s⁻¹. Besides, the Kd in the assay with human PD-1-His [5] turned out to be 2.13 nM.

B6: H1.222_L1.1 (XENP32838) (antibody, human IgG1, kappa, V domains shown)
VH: EVQLVESGGGLVQPGGSLRLSCAASGFTFSSFGMHWVRQAPGKGLEWVSYISSGSSIIYYADSVKGRFTISRDNAKNSLYLQMNSLRAEDTAVYYCARGGRLVLSSDYWGQGTLVTVSS
VL: DIVMTQSPDSLAVSLGERATINCKSSQSLLHSGNQKNYLTWYQQKPGQPPKLLIYWASTRESGVPDRFTGSGSGTDFTLTISSLQAEDVAVYYCQNDYSYPFTFGSGTKLEIKR
notes: VH substitution W112L/P114S (Xencor #) but W100F/P100bS in Kabat; also called mAb C[PD1]_H1.222_L1.1_IgG1_PVA_/S267K
As to B6, in the assay with human PD-1-His [2], the koff is 0.00565 s⁻¹ and the kon came to 114000 M⁻¹ s⁻¹. Moreover, the Kd with human PD-1-His [3] came out at 49.4 nM.

B7: H1.213_L1.1 (XENP32829) (antibody, human IgG1, kappa, V domains shown)
VH: EVQLVESGGGLVQPGGSLRLSCAASGFTFSSFGMHWVRQAPGKGLEWVSYISSGSSIIYYADSVKGRFTISRDNAKNSLYLQMNSLRAEDTAVYYCARGGRSIFSPDYWGQGTLVTVSS
VL: DIVMTQSPDSLAVSLGERATINCKSSQSLLHSGNQKNYLTWYQQKPGQPPKLLIYWASTRESGVPDRFTGSGSGTDFTLTISSLQAEDVAVYYCQNDYSYPFTFGSGTKLEIKR
notes: VH substitution L110S/V111I/W112F (Xencor #); L98S/V99I/W100F (Kabat); also called mAb C[PD1]_H1.213_L1.1_IgG1_PVA_/S267K
In the assay with human PD-1-His [2], B7 yielded a koff of 0.0029 s⁻¹ and a kon of 105000 M⁻¹ s⁻¹. Moreover, the Kd in the assay with human PD-1-His [3] came out at 27.6 nM.

B8: H1.218_L1.1 (XENP32834) (antibody, human IgG1, kappa, V domains shown)
VH: EVQLVESGGGLVQPGGSLRLSCAASGFTFSSFGMHWVRQAPGKGLEWVSYISSGSSIIYYADSVKGRFTISRDNAKNSLYLQMNSLRAEDTAVYYCARGGRQVFTPDYWGQGTLVTVSS
VL: DIVMTQSPDSLAVSLGERATINCKSSQSLLHSGNQKNYLTWYQQKPGQPPKLLIYWASTRESGVPDRFTGSGSGTDFTLTISSLQAEDVAVYYCQNDYSYPFTFGSGTKLEIKR
notes: VH substitution L110Q/W112F/S113T (Xencor #); L98Q/W100F/S100aT (Kabat); also called mAb C[PD1]_H1.218_L1.1_IgG1_PVA_/S267K
With B8, in the assay with human PD-1-His [2], the koff came to 0.0013 s⁻¹ and the kon is 66500 M⁻¹ s⁻¹. Further, the Kd with human PD-1-His [3] is 19.6 nM.

B9: H1.217_L1.1 (XENP32833) (antibody, human IgG1, kappa, V domains shown)
VH: EVQLVESGGGLVQPGGSLRLSCAASGFTFSSFGMHWVRQAPGKGLEWVSYISSGSSIIYYADSVKGRFTISRDNAKNSLYLQMNSLRAEDTAVYYCARGGRLSFSPDYWGQGTLVTVSS
VL: DIVMTQSPDSLAVSLGERATINCKSSQSLLHSGNQKNYLTWYQQKPGQPPKLLIYWASTRESGVPDRFTGSGSGTDFTLTISSLQAEDVAVYYCQNDYSYPFTFGSGTKLEIKR
notes: VH substitution V111S/W112F (Xencor #); V99S/W100F (Kabat); also called mAb C[PD1]_H1.217_L1.1_IgG1_PVA_/S267K
With B9, in the assay with human PD-1-His [2], the koff was determined as 0.023 s⁻¹ and the kon is 143000 M⁻¹ s⁻¹. This molecule also registered a Kd with human PD-1-His [3] of 161 nM.

These data come from US20240294593A1 (Genentech, published 2024).
